From PMC3950709 (Nucleic Acids Research, 2013) come the findings set out here.

Substitutions are numbered along the chain they refer to. Names and notes keep the numbering of the source. Like-named read-outs stand apart in the source and are kept apart here.

Usually stoichiometry N stands for a count of units in the complex or per binding partner.

Data set [1] concerns the target native rabbit IFIT1B (native rIFIT1B) (rabbit (endogenous in rabbit reticulocyte lysate)). Nature of the data set: native gel or EMSA.
Data set [2] deals with rabbit IFIT1B (rIFIT1B), recombinant (rabbit). Description: native gel or EMSA. (In general: In EMSA bound probe runs differently from free probe, usually more slowly.)
The target of data set [3] is T1, hIFIT2 (Homo sapiens, UniProt P09913 1-472).
T1 sequence: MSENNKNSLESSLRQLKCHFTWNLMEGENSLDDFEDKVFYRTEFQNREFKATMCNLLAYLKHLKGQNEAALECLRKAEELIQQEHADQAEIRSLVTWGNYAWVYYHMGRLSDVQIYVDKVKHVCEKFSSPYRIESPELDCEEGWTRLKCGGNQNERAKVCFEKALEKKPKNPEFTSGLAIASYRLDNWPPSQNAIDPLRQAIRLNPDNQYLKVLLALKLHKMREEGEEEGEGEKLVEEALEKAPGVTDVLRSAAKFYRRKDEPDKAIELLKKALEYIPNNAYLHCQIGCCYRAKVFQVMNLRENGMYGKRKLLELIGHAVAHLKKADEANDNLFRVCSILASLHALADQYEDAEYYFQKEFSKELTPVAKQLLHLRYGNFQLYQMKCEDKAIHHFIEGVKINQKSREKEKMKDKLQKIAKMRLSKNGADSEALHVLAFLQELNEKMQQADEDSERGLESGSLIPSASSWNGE
Nature of the data set: EMSA.

For data set [4], the target named is T2, hIFIT5 (Homo sapiens, UniProt Q13325 1-482).
T2 sequence: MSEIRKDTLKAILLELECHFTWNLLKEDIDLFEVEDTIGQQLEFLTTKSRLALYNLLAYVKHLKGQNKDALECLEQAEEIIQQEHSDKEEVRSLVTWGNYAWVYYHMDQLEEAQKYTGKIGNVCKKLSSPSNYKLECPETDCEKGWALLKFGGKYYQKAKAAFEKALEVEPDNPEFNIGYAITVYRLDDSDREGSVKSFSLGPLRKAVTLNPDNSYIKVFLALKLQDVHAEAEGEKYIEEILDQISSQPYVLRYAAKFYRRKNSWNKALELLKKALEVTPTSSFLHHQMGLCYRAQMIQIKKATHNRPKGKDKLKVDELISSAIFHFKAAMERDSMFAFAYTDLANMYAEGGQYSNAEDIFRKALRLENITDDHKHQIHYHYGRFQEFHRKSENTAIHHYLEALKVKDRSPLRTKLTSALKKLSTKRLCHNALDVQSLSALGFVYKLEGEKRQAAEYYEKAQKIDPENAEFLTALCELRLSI
Nature of the data set: EMSA.

Data set [5] has as its target T3, hIFIT3 (Homo sapiens, UniProt O14879 1-490).
T3 sequence: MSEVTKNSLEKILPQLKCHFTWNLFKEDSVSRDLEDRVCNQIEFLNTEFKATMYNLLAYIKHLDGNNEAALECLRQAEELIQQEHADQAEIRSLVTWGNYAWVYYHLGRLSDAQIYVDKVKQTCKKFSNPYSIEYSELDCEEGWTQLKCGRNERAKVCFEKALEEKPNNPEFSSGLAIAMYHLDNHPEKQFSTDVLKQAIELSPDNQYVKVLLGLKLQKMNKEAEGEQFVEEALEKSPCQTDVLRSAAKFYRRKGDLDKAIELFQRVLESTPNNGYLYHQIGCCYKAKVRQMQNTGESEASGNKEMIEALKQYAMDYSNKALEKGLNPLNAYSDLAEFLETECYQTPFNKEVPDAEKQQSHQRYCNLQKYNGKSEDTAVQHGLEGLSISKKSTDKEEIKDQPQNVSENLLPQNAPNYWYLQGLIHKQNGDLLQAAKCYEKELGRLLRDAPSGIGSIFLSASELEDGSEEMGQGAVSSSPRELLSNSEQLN
Description: EMSA.

In data set [6] the target is T4, hIFIT1 (Homo sapiens, UniProt P09914 1-478).
T4 sequence: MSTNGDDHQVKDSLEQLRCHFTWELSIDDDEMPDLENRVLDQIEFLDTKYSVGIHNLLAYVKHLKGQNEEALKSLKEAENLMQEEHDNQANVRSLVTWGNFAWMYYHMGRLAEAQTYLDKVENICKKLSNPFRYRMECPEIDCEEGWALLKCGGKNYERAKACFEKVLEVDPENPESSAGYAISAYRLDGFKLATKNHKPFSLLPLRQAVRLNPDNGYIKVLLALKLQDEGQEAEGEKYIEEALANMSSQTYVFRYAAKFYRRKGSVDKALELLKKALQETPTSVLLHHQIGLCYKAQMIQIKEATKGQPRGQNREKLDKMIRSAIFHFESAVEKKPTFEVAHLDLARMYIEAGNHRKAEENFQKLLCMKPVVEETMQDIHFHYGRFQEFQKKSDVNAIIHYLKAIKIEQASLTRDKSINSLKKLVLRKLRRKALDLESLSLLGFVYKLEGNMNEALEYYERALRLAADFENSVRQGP
Description: EMSA.

The target in data set [7] is T4, hIFIT1. Nature of the data set: EMSA. This is another data set of the same source.
Data set [8] concerns the molecule itself. Description: native gel or EMSA.
Data set [9] deals with the molecule itself. Description: native gel or EMSA. This is another data set of the same source.

On to “native rabbit IFIT1B (native rIFIT1B) (natural protein)”, for which the stoichiometry N in data set [1] was found to be 2. With “rabbit IFIT1B (rIFIT1B), recombinant (natural protein)”, the stoichiometry N in data set [2] was 2.

B1: cap0 62-nt β-globin(G) RNA (ssRNA)
RNA: GACACUUGCUUUUGACACAACUGUGUUUACUUGCAAUCCCCCAAAACAGACAGAAUGGUGCA
modifications: m7Gppp cap0
For the molecule B1, the binding result in data set [3] was “no binding”; in [4] it was “no binding”; in data set [5], “no binding”; in data set [6], “binds”.

B2: cap1 62-nt β-globin(G) RNA (ssRNA)
RNA: B1 RNA
modifications: m7GpppGm cap1
As to B2, the binding result in data set [3], in data set [4], in [7] and in data set [5] was “no binding” in each case.

B3: human IFIT1 (hIFIT1), recombinant wild type (natural protein, UniProt P09914 1-478, looked up)
chain: T4 sequence
Take B3: the binding result in data set [8] was “binds”.

B4: hIFIT1 W147L (natural protein, human, UniProt P09914 1-478, looked up)
chain: T4 sequence with W147L
Regarding B4, the binding result in [9] is on record as “binds”.

B5: hIFIT1 Y50A (natural protein, human, UniProt P09914 1-478, looked up)
chain: T4 sequence with Y50A
As for B5, the binding result in data set [9] is on record as “binds”.

B6: hIFIT1 F45A/Y50A (natural protein, human, UniProt P09914 1-478, looked up)
chain: T4 sequence with F45A, Y50A
As for B6, the binding result in [9] was “binds”.

B7: hIFIT1 Y218A (natural protein, human, UniProt P09914 1-478, looked up)
chain: T4 sequence with Y218A
As for B7, the binding result in data set [9] is “binds”.

B8: hIFIT1 F45A (natural protein, human, UniProt P09914 1-478, looked up)
chain: T4 sequence with F45A
For B8, the binding result in data set [9] is reported as “binds”.

B9: human IFIT2 (hIFIT2), recombinant (natural protein, UniProt P09913 1-472, looked up)
chain: T1 sequence
In the case of B9, the “stoichiometry N” value in [9] turned out to be 2.

B10: human IFIT3 (hIFIT3), recombinant (natural protein, UniProt O14879 1-490, looked up)
chain: T3 sequence
In the case of B10, in data set [9], the binding result is “binds”.
